Source: patent publication US20210292422A1 (published 2021)

T1: LRP6E3E4 (UniProt O75581 631-1246)
T1 chain: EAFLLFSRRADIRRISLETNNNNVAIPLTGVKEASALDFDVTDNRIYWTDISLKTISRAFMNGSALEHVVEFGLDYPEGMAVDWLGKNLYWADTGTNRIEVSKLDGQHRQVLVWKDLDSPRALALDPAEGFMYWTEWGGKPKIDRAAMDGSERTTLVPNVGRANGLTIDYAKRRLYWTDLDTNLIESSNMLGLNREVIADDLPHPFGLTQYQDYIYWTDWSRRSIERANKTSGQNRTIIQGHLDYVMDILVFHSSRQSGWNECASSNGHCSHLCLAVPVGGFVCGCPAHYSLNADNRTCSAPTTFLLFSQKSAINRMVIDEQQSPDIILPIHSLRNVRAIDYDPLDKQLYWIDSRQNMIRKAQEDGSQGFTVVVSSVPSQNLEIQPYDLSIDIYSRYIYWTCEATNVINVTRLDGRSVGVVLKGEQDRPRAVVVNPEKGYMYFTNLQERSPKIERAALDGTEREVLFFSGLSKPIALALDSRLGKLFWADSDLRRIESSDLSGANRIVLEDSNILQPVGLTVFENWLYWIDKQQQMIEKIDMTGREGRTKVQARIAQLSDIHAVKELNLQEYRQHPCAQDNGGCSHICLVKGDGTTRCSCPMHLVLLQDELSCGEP

T2: LRP6E1E2 (UniProt O75581 20-630)
T2 chain: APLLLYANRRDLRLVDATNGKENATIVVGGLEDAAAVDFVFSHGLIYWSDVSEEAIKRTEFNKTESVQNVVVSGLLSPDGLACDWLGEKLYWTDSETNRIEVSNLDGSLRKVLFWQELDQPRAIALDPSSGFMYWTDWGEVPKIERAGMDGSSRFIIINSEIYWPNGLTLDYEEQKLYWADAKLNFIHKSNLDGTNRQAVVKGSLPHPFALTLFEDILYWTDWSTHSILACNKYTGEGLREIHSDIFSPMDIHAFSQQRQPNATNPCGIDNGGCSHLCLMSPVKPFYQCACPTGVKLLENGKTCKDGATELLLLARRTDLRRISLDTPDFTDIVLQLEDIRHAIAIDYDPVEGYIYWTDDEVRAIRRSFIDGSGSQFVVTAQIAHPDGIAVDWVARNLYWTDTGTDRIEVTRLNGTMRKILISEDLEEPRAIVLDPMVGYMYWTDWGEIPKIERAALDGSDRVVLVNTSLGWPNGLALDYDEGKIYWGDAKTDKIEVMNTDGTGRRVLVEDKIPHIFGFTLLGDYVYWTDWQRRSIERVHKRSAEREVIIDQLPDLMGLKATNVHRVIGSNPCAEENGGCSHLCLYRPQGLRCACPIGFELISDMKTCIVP

B1: L2:5:αGFP:Fc (bispecific antibody)
chain: EVQLVESGGGLVQPGGSLRLSCAASGFTFTSYYISWVRQAPGKGLEWVAEISPYSGSTYYADSVKGRFTISADTSKNTAYLQMNSLRAEDTAVYYCALRARPPIRLHPRGSVMDYWGQGTLVTVSSGSAASGSSGGSSSGADIQMTQSPSSLSASVGDRVTITCRASQDVSTAVAWYQQKPGKAPKLLIYSASFLYSGVPSRFSGSGSGTDFTLTISSLQPEDFATYYCQQSYTTPPTFGQGTKVEIKGSGSGQVQLVESGGGLVQPGGSLRLSCAASGFTFSRYGMHWVRQAPGKGLEWVSGISSIGSNTYYADSVKGRFTISRDNSKNTLYLQMNSLRAEDTAVYYCARWYKTYIDVWGQGTLVTVSSGGGGSGGGGSGGGGSDIELTQPPSVSVAPGQTARISCSGDNLGKKYVYWYQQKPGQAPVLVIYGDDERPSGIPERFSGSNSGNTATLTISGTQAEDEADYYCASYDSSHILIVFGGGTKLTVLGSGSGDKTHTCPPCPAPEAAGGPSVFLFPPKPKDTLMISRTPEVTCVVVDVSHEDPEVKFNWYVDGVEVHNAKTKPREEQYNSTYRVVSVLTVLHQDWLNGKEYKCKVSNKALGAPIEKTISKAKGQPREPQVYTLPPSREEMTKNQVSLTCLVKGFYPSDIAVEWESNGQPENNYKTTPPVLDSDGSFFLYSKLTVDKSRWQQGNVFSCSVMHEALHNHYTQKSLSLSPGK
B2: F1:5:αGFP:Fc (bispecific antibody)
chain: EVQLVESGGGLVQPGGSLRLSCAASGFTFSHYTLSWVRQAPGKGLEWVSVISGDGSYTYYADSVKGRFTISSDNSKNTLYLQMNSLRAEDTAVYYCARNFIKYVFANWGQGTLVTVSSGGGGSGGGGSGGGGSDIELTQPPSVSVAPGQTARISCSGDNIGSFYVHWYQQKPGQAPVLVIYDKSNRPSGIPERFSGSNSGNTATLTISGTQAEDEADYYCQSYANTLSLVFGGGTKLTVLGSGSGQVQLVESGGGLVQPGGSLRLSCAASGFTFSRYGMHWVRQAPGKGLEWVSGISSIGSNTYYADSVKGRFTISRDNSKNTLYLQMNSLRAEDTAVYYCARWYKTYIDVWGQGTLVTVSSGGGGSGGGGSGGGGSDIELTQPPSVSVAPGQTARISCSGDNLGKKYVYWYQQKPGQAPVLVIYGDDERPSGIPERFSGSNSGNTATLTISGTQAEDEADYYCASYDSSHILIVFGGGTKLTVLGSGSGDKTHTCPPCPAPEAAGGPSVFLFPPKPKDTLMISRTPEVTCVVVDVSHEDPEVKFNWYVDGVEVHNAKTKPREEQYNSTYRVVSVLTVLHQDWLNGKEYKCKVSNKALGAPIEKTISKAKGQPREPQVYTLPPSREEMTKNQVSLTCLVKGFYPSDIAVEWESNGQPENNYKTTPPVLDSDGSFFLYSKLTVDKSRWQQGNVFSCSVMHEALHNHYTQKSLSLSPGK
B3: αGFP:5:F1:Fc (bispecific antibody)
chain: QVQLVESGGGLVQPGGSLRLSCAASGFTFSRYGMHWVRQAPGKGLEWVSGISSIGSNTYYADSVKGRFTISRDNSKNTLYLQMNSLRAEDTAVYYCARWYKTYIDVWGQGTLVTVSSGGGGSGGGGSGGGGSDIELTQPPSVSVAPGQTARISCSGDNLGKKYVYWYQQKPGQAPVLVIYGDDERPSGIPERFSGSNSGNTATLTISGTQAEDEADYYCASYDSSHILIVFGGGTKLTVLGSGSGEVQLVESGGGLVQPGGSLRLSCAASGFTFSHYTLSWVRQAPGKGLEWVSVISGDGSYTYYADSVKGRFTISSDNSKNTLYLQMNSLRAEDTAVYYCARNFIKYVFANWGQGTLVTVSSGGGGSGGGGSGGGGSDIELTQPPSVSVAPGQTARISCSGDNIGSFYVHWYQQKPGQAPVLVIYDKSNRPSGIPERFSGSNSGNTATLTISGTQAEDEADYYCQSYANTLSLVFGGGTKLTVLGSGSGDKTHTCPPCPAPEAAGGPSVFLFPPKPKDTLMISRTPEVTCVVVDVSHEDPEVKFNWYVDGVEVHNAKTKPREEQYNSTYRVVSVLTVLHQDWLNGKEYKCKVSNKALGAPIEKTISKAKGQPREPQVYTLPPSREEMTKNQVSLTCLVKGFYPSDIAVEWESNGQPENNYKTTPPVLDSDGSFFLYSKLTVDKSRWQQGNVFSCSVMHEALHNHYTQKSLSLSPGK
B4: αGFP:5:L2:Fc (bispecific antibody)
chain: QVQLVESGGGLVQPGGSLRLSCAASGFTFSRYGMHWVRQAPGKGLEWVSGISSIGSNTYYADSVKGRFTISRDNSKNTLYLQMNSLRAEDTAVYYCARWYKTYIDVWGQGTLVTVSSGGGGSGGGGSGGGGSDIELTQPPSVSVAPGQTARISCSGDNLGKKYVYWYQQKPGQAPVLVIYGDDERPSGIPERFSGSNSGNTATLTISGTQAEDEADYYCASYDSSHILIVFGGGTKLTVLGSGSGEVQLVESGGGLVQPGGSLRLSCAASGFTFTSYYISWVRQAPGKGLEWVAEISPYSGSTYYADSVKGRFTISADTSKNTAYLQMNSLRAEDTAVYYCALRARPPIRLHPRGSVMDYWGQGTLVTVSSGSAASGSSGGSSSGADIQMTQSPSSLSASVGDRVTITCRASQDVSTAVAWYQQKPGKAPKLLIYSASFLYSGVPSRFSGSGSGTDFTLTISSLQPEDFATYYCQQSYTTPPTFGQGTKVEIKGSGSGDKTHTCPPCPAPEAAGGPSVFLFPPKPKDTLMISRTPEVTCVVVDVSHEDPEVKFNWYVDGVEVHNAKTKPREEQYNSTYRVVSVLTVLHQDWLNGKEYKCKVSNKALGAPIEKTISKAKGQPREPQVYTLPPSREEMTKNQVSLTCLVKGFYPSDIAVEWESNGQPENNYKTTPPVLDSDGSFFLYSKLTVDKSRWQQGNVFSCSVMHEALHNHYTQKSLSLSPGK
B5: L1:5:αGFP:Fc (bispecific antibody)
chain: DVKLVESGGGLVKLGGSLRLSCAASGFSFSTSYMSWVRQTPEKRLELVAAINLNGGSTYYSDTVKGRFTISRDNAKNTLYLQMSSLKSEDTAFYYCASELAGYGTPFAYWGQGTLVTVSAGSAASGSSGGSSSGADIVLTQSPATLSVTPGDSVSLSCKASQSISYNLHWYQQKSHESPRLLIKYTSQSISGIPSRFSGSGSGTDFTLTINNVETEDFGMYFCQQSNSWPLTFGAGTKLEVKGSGSGQVQLVESGGGLVQPGGSLRLSCAASGFTFSRYGMHWVRQAPGKGLEWVSGISSIGSNTYYADSVKGRFTISRDNSKNTLYLQMNSLRAEDTAVYYCARWYKTYIDVWGQGTLVTVSSGGGGSGGGGSGGGGSDIELTQPPSVSVAPGQTARISCSGDNLGKKYVYWYQQKPGQAPVLVIYGDDERPSGIPERFSGSNSGNTATLTISGTQAEDEADYYCASYDSSHILIVFGGGTKLTVLGSGSGDKTHTCPPCPAPEAAGGPSVFLFPPKPKDTLMISRTPEVTCVVVDVSHEDPEVKFNWYVDGVEVHNAKTKPREEQYNSTYRVVSVLTVLHQDWLNGKEYKCKVSNKALGAPIEKTISKAKGQPREPQVYTLPPSREEMTKNQVSLTCLVKGFYPSDIAVEWESNGQPENNYKTTPPVLDSDGSFFLYSKLTVDKSRWQQGNVFSCSVMHEALHNHYTQKSLSLSPGK

What was measured:
Test in all cases: BLI (Octet)
LRP6E3E4 = biological target: T1, LRP6E3E4
Frizzled 1 (Fzd1) = Frizzled 1 (Fzd1) (UniProt Q9UP38 111-230)
LRP6E1E2 = biological target: T2, LRP6E1E2

Binder | Kd (LRP6E3E4) | Kd (Frizzled 1 (Fzd1)) | also measured
B1 | 0.5 nM |  | 
B2 |  | 0.2 nM | 
B3 |  | 2.5 nM | 
B4 | 0.8 nM |  | 
B5 |  |  | Kd (LRP6E1E2): 16 nM
